Reference: patent US20200216495A1 (ADRX, published 2020)
Several values for one entry are separate records, joined by “and”; a condition that tells them apart may be missing. Equal entries are not always repeated. Square brackets hold non-standard residues; d marks the D form. Ends that are not written are not given here.

B1: wrlritw (peptide)
peptide: [dW][dR][dL][dR][dI][dT][dW]
B2: lkiriayh (peptide)
peptide: [dL][dK][dI][dR][dI][dA][dY][dH]
B3: walrihw (peptide)
peptide: [dW][dA][dL][dR][dI][dH][dW]
B4: wmlrihw (peptide)
peptide: [dW][dM][dL][dR][dI][dH][dW]
B5: wrlkvrw (peptide)
peptide: [dW][dR][dL][dK][dV][dR][dW]
B6: yrlkvrw (peptide)
peptide: [dY][dR][dL][dK][dV][dR][dW]
B7: rlkvrww (peptide)
peptide: [dR][dL][dK][dV][dR][dW][dW]
B8: fklwlrwf (peptide)
peptide: [dF][dK][dL][dW][dL][dR][dW][dF]
B9: lrikirfh (peptide)
peptide: [dL][dR][dI][dK][dI][dR][dF][dH]
B10: wwlklrww (peptide)
peptide: [dW][dW][dL][dK][dL][dR][dW][dW]
B11: lkihirhw (peptide)
peptide: [dL][dK][dI][dH][dI][dR][dH][dW]
B12: wrlrimw (peptide)
peptide: [dW][dR][dL][dR][dI][dM][dW]
B13: lkirihya (peptide)
peptide: [dL][dK][dI][dR][dI][dH][dY][dA]
B14: wrtkvrw (peptide)
peptide: [dW][dR][dT][dK][dV][dR][dW]
B15: wqlqvrw (peptide)
peptide: [dW][dQ][dL][dQ][dV][dR][dW]
B16: vrwwklrw (peptide)
peptide: [dV][dR][dW][dW][dK][dL][dR][dW]
B17: lkvrwwwr (peptide)
peptide: [dL][dK][dV][dR][dW][dW][dW][dR]
B18: lelkikfw (peptide)
peptide: [dL][dE][dL][dK][dI][dK][dF][dW]
B19: wrlriaw (peptide)
peptide: [dW][dR][dL][dR][dI][dA][dW]
B20: wdlkvrw (peptide)
peptide: [dW][dD][dL][dK][dV][dR][dW]
B21: lkiaihy (peptide)
peptide: [dL][dK][dI][dA][dI][dH][dY]
B22: fkikikw (peptide)
peptide: [dF][dK][dI][dK][dI][dK][dW]
modifications: not fully specified; printed as fkikikw
B23: fkieieyh (peptide)
peptide: [dF][dK][dI][dE][dI][dE][dY][dH]
B24: wrlkvrwf (peptide)
peptide: [dW][dR][dL][dK][dV][dR][dW][dF]
B25: kvrwwlrw (peptide)
peptide: [dK][dV][dR][dW][dW][dL][dR][dW]
B26: frirlrw (peptide)
peptide: [dF][dR][dI][dR][dL][dR][dW]
B27: tlkivw (peptide)
peptide: [dT][dL][dK][dI][dV][dW]
B28: walkvrw (peptide)
peptide: [dW][dA][dL][dK][dV][dR][dW]
B29: lkiriha (peptide)
peptide: [dL][dK][dI][dR][dI][dH][dA]
B30: frlriwwf (peptide)
peptide: [dF][dR][dL][dR][dI][dW][dW][dF]
B31: tkirihy (peptide)
peptide: [dT][dK][dI][dR][dI][dH][dY]
B32: fwlrihwf (peptide)
peptide: [dF][dW][dL][dR][dI][dH][dW][dF]
B33: wrldvrw (peptide)
peptide: [dW][dR][dL][dD][dV][dR][dW]
B34: wrlkvdw (peptide)
peptide: [dW][dR][dL][dK][dV][dD][dW]
B35: lkirihyr (peptide)
peptide: [dL][dK][dI][dR][dI][dH][dY][dR]
B36: friklrw (peptide)
peptide: [dF][dR][dI][dK][dL][dR][dW]
B37: wrlkvew (peptide)
peptide: [dW][dR][dL][dK][dV][dE][dW]
B38: frlwihw (peptide)
peptide: [dF][dR][dL][dW][dI][dH][dW]
B39: wrlkvaw (peptide)
peptide: [dW][dR][dL][dK][dV][dA][dW]
B40: rrlkvrww (peptide)
peptide: [dR][dR][dL][dK][dV][dR][dW][dW]
B41: wrlwihww (peptide)
peptide: [dW][dR][dL][dW][dI][dH][dW][dW]
B42: wnlkvnw (peptide)
peptide: [dW][dN][dL][dK][dV][dN][dW]
B43: lririhyh (peptide)
peptide: [dL][dR][dI][dR][dI][dH][dY][dH]
B44: welrihw (peptide)
peptide: [dW][dE][dL][dR][dI][dH][dW]
B45: vkvwgrlw (peptide)
peptide: [dV][dK][dV][dW]G[dR][dL][dW]
modifications: not fully specified (residue 5); printed as vkvwgrlw
B46: wtlrihw (peptide)
peptide: [dW][dT][dL][dR][dI][dH][dW]
B47: wrltihw (peptide)
peptide: [dW][dR][dL][dT][dI][dH][dW]
B48: lkirihye (peptide)
peptide: [dL][dK][dI][dR][dI][dH][dY][dE]
B49: fklkikw (peptide)
peptide: [dF][dK][dL][dK][dI][dK][dW]
B50: lkiqihy (peptide)
peptide: [dL][dK][dI][dQ][dI][dH][dY]
B51: tiklvw (peptide)
peptide: [dT][dI][dK][dL][dV][dW]
B52: ilkivw (peptide)
peptide: [dI][dL][dK][dI][dV][dW]
B53: lklhlhfh (peptide)
peptide: [dL][dK][dL][dH][dL][dH][dF][dH]
B54: wklklrw (peptide)
peptide: [dW][dK][dL][dK][dL][dR][dW]
B55: wlkivw (peptide)
peptide: [dW][dL][dK][dI][dV][dW]
B56: wrlavrw (peptide)
peptide: [dW][dR][dL][dA][dV][dR][dW]

Target: Ac-VQIINK-NH2 (SEQ ID NO: 23) (N-terminal acetyl (Ac); C-terminal amide (NH2))
Assay: cell-based or functional assay

VQIINK Inhibition IC50 | Binder
2.89 µm | B1
5.21 µm | B2
3.12 µm | B3
3.34 µm | B4
2.45 µm | B5
5.12 µm | B6
5.35 µm | B7
2.52 µm | B8
2.69 µm | B9
3.79 µm | B10
2.38 µm | B11
2.61 µm | B12
3.83 µm | B13
4.41 µm | B14
2.74 µm | B15
4.06 µm | B16
3.34 µm | B17
2.78 µm | B18
2.86 µm | B19

VQIINK Inhibition IC50 | Binder
3.87 µm | B20
4.77 µm | B21
2.35 µm | B22
4.03 µm | B23
2.53 µm | B24
4.35 µm | B25
2.58 µm | B26
5.02 µm and 7.98 µm | B27
3.32 µm | B28
5.3 µm | B29
2.29 µm | B30
4.77 µm | B31
4.42 µm | B32
2.42 µm | B33
3.21 µm | B34
3.02 µm | B35
2.49 µm | B36
4.36 µm | B37
4.01 µm | B38

VQIINK Inhibition IC50 | Binder
3.57 µm | B39
4.44 µm | B40
4.07 µm | B41
3.5 µm | B42
3.34 µm | B43
3.46 µm | B44
4.51 µm | B45
2.82 µm | B46
3.16 µm | B47
3.39 µm | B48
2.66 µm | B49
2.82 µm | B50
5.37 µm | B51
4.13 µm | B52
2.87 µm | B53
5.33 µm | B54
3.93 µm | B55
3.89 µm | B56
